Test results taken from article PMC3308208, “Disassembly and reassembly of human papillomavirus virus-like particles produces more virion-like antibody reactivity” (Virology Journal, 2012).

Target: the molecule itself
Experiment: cryo-EM imaging; post-D/R HPV16 VLPs, undiluted, in vitrified ice on holey carbon films; Tecnai F20 at 120 keV

B1: HPV16 L1 virus-like particles (VLPs) (natural protein)
chain: MSLWLPSEATVYLPPVPVSKVVSTDEYVARTNIYYHAGTSRLLAVGHPYFPIKKPNNNKILVPKVSGLQYRVFRIHLPDPNKFGFPDTSFYNPDTQRLVWACVGVEVGRGQPLGVGISGHPLLNKLDDTENASAYAANAGVDNRECISMDYKQTQLCLIGCKPPIGEHWGKGSPCTNVAVNPGDCPPLELINTVIQDGDMVDTGFGAMDFTTLQANKSEVPLDICTSICKYPDYIKMVSEPYGDSLFFYLRREQMFVRHLFNRAGAVGENVPDDLYIKGSGSTANLASSNYFPTPSGSMVTSDAQIFNKPYWLQRAQGHNNGICWGNQLFVTVVDTTRSTNMSLCAAISTSETTYKNTNFKEYLRHGEEYDLQFIFQLCKITLTADVMTYIHSMNSTILEDWNFGLQPPPGGTLEDTYRFVTSQAIACQKHTPPAPKEDPLKKYTFWEVNLKEKFSADLDQFPLGRKFLLQAGLKAKPKFTLGKRKATPTTSSTSTTAKRKKRKL
notes: major capsid protein L1 of human papillomavirus type 16, full length, self-assembled into VLPs; The same L1 protein was tested as pre-D/R VLPs (purified only) and as post-D/R VLPs (disassembled and reassembled); The T = 7 count of 360 copies is stated only in the background; also called HPV 16 L1 VLPs; post-D/R VLPs; source: over expressed in yeast, purified VLPs; post-D/R lots after disassembly …
- binding result: binds
